The target of series [1] is T1, Ndm, two-subunit N-demethylase component purified from Pseudomonas putida CBB5 (UniProt H9N289).
T1 sequence 1: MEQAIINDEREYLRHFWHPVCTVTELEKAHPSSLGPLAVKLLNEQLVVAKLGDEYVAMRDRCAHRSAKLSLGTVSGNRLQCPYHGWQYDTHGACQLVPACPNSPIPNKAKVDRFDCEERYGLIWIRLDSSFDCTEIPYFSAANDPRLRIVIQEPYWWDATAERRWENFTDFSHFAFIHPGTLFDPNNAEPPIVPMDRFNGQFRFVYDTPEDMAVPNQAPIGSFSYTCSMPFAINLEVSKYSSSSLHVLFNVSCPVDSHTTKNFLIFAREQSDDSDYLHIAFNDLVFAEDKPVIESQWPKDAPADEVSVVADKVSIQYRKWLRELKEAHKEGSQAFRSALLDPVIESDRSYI
T1 sequence 2: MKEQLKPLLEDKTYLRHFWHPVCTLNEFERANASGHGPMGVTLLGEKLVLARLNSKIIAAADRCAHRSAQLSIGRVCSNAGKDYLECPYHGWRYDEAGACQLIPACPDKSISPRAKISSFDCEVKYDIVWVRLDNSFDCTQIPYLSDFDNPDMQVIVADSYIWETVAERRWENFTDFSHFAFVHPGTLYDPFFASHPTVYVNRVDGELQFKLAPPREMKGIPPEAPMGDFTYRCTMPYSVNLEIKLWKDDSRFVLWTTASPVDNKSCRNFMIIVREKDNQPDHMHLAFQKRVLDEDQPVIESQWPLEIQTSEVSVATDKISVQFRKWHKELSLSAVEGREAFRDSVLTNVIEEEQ

In a further series the target is T2, NdmA-His6, H9N289.
T2 chain: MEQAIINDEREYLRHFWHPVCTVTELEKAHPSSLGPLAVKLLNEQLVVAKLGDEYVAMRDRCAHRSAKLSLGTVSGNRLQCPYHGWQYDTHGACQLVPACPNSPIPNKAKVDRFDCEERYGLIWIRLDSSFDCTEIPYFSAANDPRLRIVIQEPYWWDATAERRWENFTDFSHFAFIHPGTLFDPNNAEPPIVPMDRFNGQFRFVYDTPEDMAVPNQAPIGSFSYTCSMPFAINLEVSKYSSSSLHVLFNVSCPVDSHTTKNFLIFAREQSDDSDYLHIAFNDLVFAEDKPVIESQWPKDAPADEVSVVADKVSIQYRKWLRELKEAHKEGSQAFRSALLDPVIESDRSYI

Another series deals with T3, NdmB-His6, H9N290.
T3 chain: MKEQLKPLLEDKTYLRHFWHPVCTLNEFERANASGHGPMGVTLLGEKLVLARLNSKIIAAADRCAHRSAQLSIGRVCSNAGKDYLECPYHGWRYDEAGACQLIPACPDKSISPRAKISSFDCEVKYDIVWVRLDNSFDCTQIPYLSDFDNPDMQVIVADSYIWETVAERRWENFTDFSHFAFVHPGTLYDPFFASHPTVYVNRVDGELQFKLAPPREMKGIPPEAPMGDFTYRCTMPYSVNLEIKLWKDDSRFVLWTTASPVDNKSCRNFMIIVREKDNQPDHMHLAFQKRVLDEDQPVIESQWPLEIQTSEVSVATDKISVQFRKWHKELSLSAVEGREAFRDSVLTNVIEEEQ

Series [2] addresses T4, Ndm, two-subunit N-demethylase component purified from Pseudomonas putida CBB5, H9N289.
T4 chain 1: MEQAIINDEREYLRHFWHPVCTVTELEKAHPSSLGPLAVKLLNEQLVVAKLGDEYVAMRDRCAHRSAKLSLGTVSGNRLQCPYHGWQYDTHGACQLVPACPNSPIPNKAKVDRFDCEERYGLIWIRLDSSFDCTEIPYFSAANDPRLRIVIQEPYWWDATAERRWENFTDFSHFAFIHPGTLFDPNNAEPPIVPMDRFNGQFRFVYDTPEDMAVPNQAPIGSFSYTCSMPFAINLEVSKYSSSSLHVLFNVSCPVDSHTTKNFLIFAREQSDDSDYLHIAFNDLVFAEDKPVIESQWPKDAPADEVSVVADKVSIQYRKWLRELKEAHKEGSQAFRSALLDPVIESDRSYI
T4 chain 2: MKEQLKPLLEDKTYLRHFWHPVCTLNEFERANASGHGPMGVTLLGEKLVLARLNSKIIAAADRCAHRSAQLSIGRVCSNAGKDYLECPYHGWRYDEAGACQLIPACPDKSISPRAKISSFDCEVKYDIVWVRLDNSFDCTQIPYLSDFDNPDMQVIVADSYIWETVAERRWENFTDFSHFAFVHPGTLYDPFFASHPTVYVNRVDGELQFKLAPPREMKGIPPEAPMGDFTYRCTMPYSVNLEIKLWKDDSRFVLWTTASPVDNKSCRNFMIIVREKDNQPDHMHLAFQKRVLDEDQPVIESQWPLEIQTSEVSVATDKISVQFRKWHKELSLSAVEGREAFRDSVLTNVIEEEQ

We go through 4 molecules from US20140227729.

As to “Ccr, reductase component with cytochrome c reductase activity (partially purified fraction from Pseudomonas putida CBB5)”, the N-demethylase activity entry in series [1] is “No N-demethylase activity was observed when purified Ndm was assayed without the Ccr fraction”.

B1: His6-NdmD (protein)
chain: HHHHHHSSGLVPRGSHMNKLDVNQWFPIATTEDLPKRHVFHATLLGQEMAIWRDDSGSVNAWENRCPHRGLNTLGANTGNELRCQYHGWTYESGTGGCTFVPAHRDAPPPNAARVNTFPVREKHGFIWTTLGQPPGEPISILDDAQLVNAVKTNLHSVVIDADIDGVVSVLRQNLSAFIDVFGAASAEDLHLKSMLQDRGILVTRSGSIAIHFYMQRSTISKCVVHAQVLTPGRPGYELQKNYSYAMNVIRRAAEAVATDLISITDISDQTIEKLEVVRENMTKAPPTHYICEVVTRTQETGDINSYWLKPIGYPLPAFSPGMHISITTPEGSIRQYSLVNGPDERESFIIGVKKEIGSRGGSRSMHEDVKVGTQLKVTLPRNGFPLVQTRKHPILVAGGIGITPILCMAGALDQQGSSYEIHYFARAFEHVPFQDRLTALGDRLNVHLGLGPDETRAKLPDIMEIHNAQDVDVYTCGPQPMIETVSAVALAHGIAEESIRFEFFSKKNDVPVSDEEYEVELKKTGQIFTVSPGSTLLQACLDNDVRIEASCEQGVCGTCITPVVSGDLEHHDTYLSKKERESGKWIMPCVSRCKSKKIVLDL
As for B1, the “N-demethylation of caffeine to theobromine (HPLC)” value with NdmA-His6, H9N289 was “when NdmA-His6 was incubated with His6-NdmD, caffeine, NADH, and exogenous Fe^2+, caffeine was stoichiometrically demethylated at N1 to theobromine”. For the same molecule, the “N-demethylation of theobromine to 7-methylxanthine (HPLC)” value in the series with NdmB-His6, H9N290 was “NdmB-His6 with His6-NdmD, theobromine, NADH, and Fe^2+ resulted in stoichiometric demethylation at N3 of theobromine to 7-methylxanthine”.

B2: Spinach ferredoxin reductase (protein)
chain: QIASDVEAPPPAPAKVEKHSKKMEEGITVNKFKPKTPYVGRCLLNTKITGDDAPGETWHMVFSHEGEIPYREGQSVGVIPDGEDKNGKPHKLRLYSIASSALGDFGDAKSVSLCVKRLIYTNDAGETIKGVCSNFLCDLKPGAEVKLTGPVGKEMLMPKDPNATIIMLGTGTGIAPFRSFLWKMFFEKHDDYKFNGLAWLFLGVPTSSSLLYKEEFEKMKEKAPDNFRLDFAVSREQTNEKGEKMYIQTRMAQYAVELWEMLKKDNTYFYMCGLKGMEKGIDDIMVSLAAAEGIDWIEYKRQLKKAEQWNVEVY
In the case of B2, the N-demethylase activity entry in series [2] was “Ndm did not couple with ferredoxin reductase plus ferredoxin from spinach”.

B3: Reductase of Pseudomonas sp. 9816 naphthalene dioxygenase (protein)
chain: MELLIQPNNRIIPFSAGANLLEVLRENGVAISYSCLSGRCGTCRCRVIDGSVIDSGAENGQSNLTDKQYVLACQSVLTGNCAIEVPEADEIVTHPARIIKGTVVAVESPTHDIRRLRVRLSKPFEFSPGQYATLQFSPEHARPYSMAGLPDDQEMEFHIRKVPGGRVTEYVFEHVREGTSIKLSGPLGTAYLRQKHTGPMLCVGGGTGLAPVLSIVRGALKSGMTNPILLYFGVRSQQDLYDAERLHKLAADHPQLTVHTVIATGPINEGQRAGLITDVIEKDILSLAGWRAYLCGAPAMVEALCTVTKHLGISPEHIYADAFYPGGI
In the case of B3, the N-demethylase activity result in series [2] was “Ndm did not function in the presence of the reductase and ferredoxin components of Pseudomonas sp. 9816 naphthalene dioxygenase”.
